Assay results reported in patent US20070148191A1.

Target: CDw52 antigen (CAMPATH-1 antigen) (human) (UniProt P31358)
Experiment: cell-based or functional assay

lysis in 51Cr release assay (ADCC) of SaOS-2 osteosarcoma cells with LAK effector cells, after 18 h: 45%
Substance: CAMPATH (antibody)
